Measurements from patent US7144983 (Genentech, dated 2006).

Tests used:
[1] = molecular target: T1, p75 on A875 human melanoma cells (human, UniProt P08138 29-427); experiment: 125I-hNGF displacement, A875 cells (p75), 4 C
T1 construct: whole, on cells; also called A875-p75
T1 sequence (looked up): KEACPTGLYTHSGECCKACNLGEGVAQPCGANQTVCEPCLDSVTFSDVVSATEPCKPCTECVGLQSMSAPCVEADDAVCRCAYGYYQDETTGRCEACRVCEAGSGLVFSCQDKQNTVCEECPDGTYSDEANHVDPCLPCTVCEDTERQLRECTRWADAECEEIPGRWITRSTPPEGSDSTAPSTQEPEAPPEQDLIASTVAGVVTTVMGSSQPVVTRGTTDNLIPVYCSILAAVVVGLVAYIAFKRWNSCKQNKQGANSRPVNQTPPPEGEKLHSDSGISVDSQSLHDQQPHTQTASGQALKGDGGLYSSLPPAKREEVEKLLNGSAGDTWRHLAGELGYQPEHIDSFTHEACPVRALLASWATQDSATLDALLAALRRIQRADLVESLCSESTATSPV

[2] = molecular target: trkA on parental PC12 cells (rat, UniProt P35739 33-799); experiment: cell-based or functional assay
trkA on parental PC12 cells, sequence (P35739 33-799): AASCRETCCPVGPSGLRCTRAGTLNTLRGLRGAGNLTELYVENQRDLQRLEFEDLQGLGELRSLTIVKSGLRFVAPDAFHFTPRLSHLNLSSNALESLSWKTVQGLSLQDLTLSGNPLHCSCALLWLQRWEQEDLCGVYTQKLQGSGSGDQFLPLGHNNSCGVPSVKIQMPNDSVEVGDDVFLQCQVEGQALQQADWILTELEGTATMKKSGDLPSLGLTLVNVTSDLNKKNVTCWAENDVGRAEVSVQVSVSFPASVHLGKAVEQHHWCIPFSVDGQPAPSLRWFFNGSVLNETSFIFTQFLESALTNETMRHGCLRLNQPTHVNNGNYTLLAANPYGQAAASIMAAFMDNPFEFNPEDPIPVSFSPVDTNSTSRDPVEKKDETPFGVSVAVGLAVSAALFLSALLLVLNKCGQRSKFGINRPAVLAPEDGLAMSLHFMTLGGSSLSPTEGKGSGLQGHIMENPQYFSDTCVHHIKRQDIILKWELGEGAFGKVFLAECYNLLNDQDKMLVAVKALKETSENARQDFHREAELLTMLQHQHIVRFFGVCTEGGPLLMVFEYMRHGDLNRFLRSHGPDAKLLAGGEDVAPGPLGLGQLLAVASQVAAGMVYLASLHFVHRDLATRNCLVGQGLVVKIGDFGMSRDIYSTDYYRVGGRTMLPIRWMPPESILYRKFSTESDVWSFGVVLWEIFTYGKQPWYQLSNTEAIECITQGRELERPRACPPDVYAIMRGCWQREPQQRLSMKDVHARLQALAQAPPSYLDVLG

[3] = molecular target: T2, rat trkA recombinantly expressed on NIH3T3 cells (rat, UniProt P35739 33-799); experiment: cell-based or functional assay
T2 sequence (P35739 33-799): as above

[4] = molecular target: T2, rat trkA recombinantly expressed on …; experiment: 125I-hNGF displacement, NIH3T3-trkA cells, 4 C

- IC50 [1]: 0.21 nM
- IC50 mut/NGF [1]: 1 ratio
- PC12 neurite outgrowth EC50 [2]: 16 ng/mL
- PC12 neurite outgrowth EC50 mutant/hNGF [2]: 114 ratio
- trkA autophosphorylation, maximal level at 1 × 10^-8 M, mutant/hNGF [3]: 0.07 ratio
- IC50 mut/NGF [4]: > 40 ratio
B1: hNGF Mut 5 (hBDNF N-terminal chimeric mutant) (ligand)
chain: HSDPAHRGEFSVCDSVSVWVGDKTTATDIKGKEVMVLGEVNINNSVFKQYFFETKCRDPNPVDSGCRGIDSKHWNSYCTTTHTFVKALTMDGKQAAWRFIRIDTACVCVLSRKAVRRA
